Reference: patent US6033847

Tests used:
[1] = target: CDK6-cyclin D2 holoenzyme complex (Mus musculus (Mouse)) (UniProt P30280)
[2] = target: CDK4-cyclin D2 holoenzyme complex (Mus musculus (Mouse)) (UniProt P30285)

| Substance | pRb kinase activity (fold less efficient) [1] | pRb kinase activity (fold less efficient) [2] |
| --- | --- | --- |
| GST-ANK6 (GST fused to the MAD3 subdomain containing only the five ankyrin repeats, amino acids 73-242) (from UniProt P08515) | > 30 | > 30 |
| GST-MAD3 (GST fused to mouse IkB (MAD3)) (from UniProt Q9Z1E3) | > 30 | > 30 |
